From article doi:10.1101/2025.07.06.663161 (bioRxiv, 2025)
Residue numbers refer to the chain shown, from its start. Numbers in names are those of the source.

B1: Recombinant wild-type Cdc19, Strep-tagged (SUMO tag cleaved off) (natural protein)
chain: MSRLERLTSLNVVAGSDLRRTSIIGTIGPKTNNPETLVALRKAGLNIVRMNFSHGSYEYHKSVIDNARKSEELYPGRPLAIALDTKGPEIRTGTTTNDVDYPIPPNHEMIFTTDDKYAKACDDKIMYVDYKNITKVISAGRIIYVDDGVLSFQVLEVVDDKTLKVKALNAGKICSHKGVNLPGTDVDLPALSEKDKEDLRFGVKNGVHMVFASFIRTANDVLTIREVLGEQGKDVKIIVKIENQQGVNNFDEILKVTDGVMVARGDLGIEIPAPEVLAVQKKLIAKSNLAGKPVICATQMLESMTYNPRPTRAEVSDVGNAILDGADCVMLSGETAKGNYPINAVTTMAETAVIAEQAIAYLPNYDDMRNCTPKPTSTTETVAASAVAAVFEQKAKAIIVLSTSGTTPRLVSKYRPNCPIILVTRCPRAARFSHLYRGVFPFVFEKEPVSDWTDDVEARINFGIEKAKEFGILKKGDTYVSIQGFKAGAGHSNTLQVSTV
B2: Recombinant phosphomimicking Cdc19-3E (S56E, S70E, S175E), Strep-tagged (SUMO tag cleaved off) (natural protein)
chain: B1 chain with S56E, S70E, S175E

Molecular target: the molecule itself
Experiment: atomic force microscopy

Row | Protein | binding result
1 | B1 | binds
2 | B2 | binds
